Laboratory results published in publication PMC2877398 (Structure (London, England : 1993), 2010).
Where “and” joins values, the source holds several entries; their conditions need not be identical. Identical values can stand only once.

Columns and labels:
[1] = molecular target: T1, S. cerevisiae RNA guanylyltransferase Ceg1 (1–459), full length (S. cerevisiae, UniProt Q01159 1-459); experiment: SEC
T1 sequence (looked up): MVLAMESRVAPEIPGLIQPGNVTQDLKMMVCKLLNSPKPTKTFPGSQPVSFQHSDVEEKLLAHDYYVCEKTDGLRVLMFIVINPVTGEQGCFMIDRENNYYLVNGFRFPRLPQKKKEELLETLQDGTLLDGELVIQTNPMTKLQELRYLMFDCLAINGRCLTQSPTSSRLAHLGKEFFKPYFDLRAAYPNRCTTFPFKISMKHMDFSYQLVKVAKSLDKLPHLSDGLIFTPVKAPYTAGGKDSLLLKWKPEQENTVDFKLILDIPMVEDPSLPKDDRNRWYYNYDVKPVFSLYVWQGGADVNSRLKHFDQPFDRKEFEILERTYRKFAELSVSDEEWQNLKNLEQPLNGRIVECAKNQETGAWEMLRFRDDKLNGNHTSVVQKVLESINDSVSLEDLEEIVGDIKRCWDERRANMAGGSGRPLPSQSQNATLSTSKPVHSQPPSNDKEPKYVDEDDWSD

crystal structure = molecular target: the molecule itself; experiment: crystal structure

B1: S. cerevisiae RNA triphosphatase Cet1 (241–549) (domain or fragment, UniProt O13297 241-549, looked up)
chain: YRNVPIWAQKWKPTIKALQSINVKDLKIDPSFLNIIPDDDLTKSVQDWVYATIYSIAPELRSFIELEMKFGVIIDAKGPDRVNPPVSSQCVFTELDAHLTPNIDASLFKELSKYIRGISEVTENTGKFSIIESQTRDSVYRVGLSTQRPRFLRMSTDIKTGRVGQFIEKRHVAQLLLYSPKDSYDVKISLNLELPVPDNDPPEKYKSQSPISERTKDRVSYIHNDSCTRIDITKVENHNQNSKSRQSETTHEVELEINTPALLNAFDNITNDSKEYASLIRTFLNNGTIIRRKLSSLSYEIFEGSKKVM
stoichiometry N [1]: 2 Cet1 protomers per Ceg1 (2:1) and 1 Cet1 protomers per Ceg1 (2:2)
stoichiometry N (crystal structure): 2 protomers
